In patent publication US20170218081A1 (OHIO STATE INNOVATION FOUNDATION, published 2017):
Values belong to the binder of their own block, whether it stands above or below them.

Columns and labels:
[1] = biological target: T1, Bovine submaxillary mucin (bovine); assay: SPR, BSM immobilised on CM5 chip
T1 construct: Glycoprotein used as the TAG-72-positive antigen in dot blots and SPR; also called BSM; TAG-72 positive mucin
Protocol: To further confirm the binding data, surface plasmon resonance on 3E8.IgG, CC49.scFv, and 3E8.scFv (FIG. 7c) was determined. […] Next the affinity of the scFv of CC49 was measured. CC49.scFv binds in the mid-nanomolar range with a dissociation constant of 30±8 nM. Finally, SPR was conducted on 3E8.scFv and found it to bind 2-fold better than CC49.scFv and only 4-fold weaker than the bivalent IgG. At 16±4 nM, 3E8.scFv binds better than clinically tested CC49.IgG and scFv variants of CC49, and has more desirable biophysical properties than full-length antibodies.
The binding parameters were evaluated using surface plasmon resonance (SPR). BSM was immobilized on a CM5 dextran sensor chip using the GE Pharmacia amine coupling kit (BR-1000-50). Scouting conditions were 200 μg mL⁻¹ BSM in 100 mM sodium acetate, pH 4 for channel 2, and 10 μg mL⁻¹ BSA in 100 mM sodium acetate, pH 4 for channel 1. The immobilization protocol continued until 700 RU were obtained. Binding was measured as 2-1. Antibody and fragments were dialyzed into 10 mM HEPES, 150 mM NaCl, 3.4 μM EDTA, 0.005% surfactant P20 (GE Healthcare) and were assayed from 0-400 nM. Samples were bound for 120 seconds at 10 μL min⁻¹ and dissociation was measured for 180 seconds. The CM5 chip was regenerated between trials with 6 M guanidine and 200 mM acetic acid with no loss in activity. The average binding parameters were evaluated using the BIAevaluation software.

[2] = biological target: T2, bovine serum albumin (bovine, UniProt P02769 25-607); assay: negative control of the competition dot blot, fluorescein-labeled IgG, no BSM
T2 construct: also called BSA
Protocol: (§1) A similar dot blot experiment was performed using constant concentrations of BSM and fluorescein-labeled 3E8 IgG. The assays were performed with increasing concentrations of unlabeled 3E8.scFv. […] Two negative controls were performed in parallel. […] By 4 μM scFv about half of the IgG is displaced and by […] the dot blot resembles the negative control. This analysis estimates that 3E8.scFv binds approximately 16-fold weaker than 3E8.IgG and both bind the same epitope. The slight loss in affinity is expected since the native IgG is bivalent versus the monovalent scFv.
(§2) The epitope binding of the 3E8.scFv was assayed for its ability to inhibit 3E8.IgG binding. Here, 0.25 μM labeled 3E8.IgG competed with increasing concentrations of nonlabeled 3E8.scFv (0 to 8 μM). The loss of fluorescence was observed using the Typhoon phosphorimager with 488 nm excitation.

[3] = biological target: T1, Bovine submaxillary mucin; assay: estimate from the competition dot blot on BSM
Protocol: as §1, §2

[4] = biological target: T1, Bovine submaxillary mucin; assay: estimate from the competition dot blot against labeled 3E8.IgG
[5] = biological target: T1, Bovine submaxillary mucin; assay: competition dot blot; unlabeled scFv against 0.25 µM fluorescein-labeled 3E8 IgG on BSM
Protocol: as §1, §2

[6] = biological target: T2, bovine serum albumin; assay: fluorescence dot blot on nitrocellulose
Protocol: Bovine submaxillary mucin is positive for the TAG-72 epitope, sialyl-Tn. To qualitatively assay binding, BSM was spotted on a nitrocellulose membrane and then blocked with bovine serum albumin (BSA). The antibodies and fragments were labeled nonspecifically at lysines with the NHS-ester of fluorescein, and then were added to the dot blots. After gentle washing the samples were imaged using a Typhoon phosphorimager.
Qualitative binding to sialyl-Tn was assayed by dot-blotting. First, 2 μL of 5 mg mL⁻¹ bovine submaxillary mucin (M3895-Sigma) was spotted on a nitrocellulose membrane. The membrane was allowed to dry overnight before blocking with 5 mg mL⁻¹ BSA. After overnight incubation, excess BSA was removed by washing before addition of fluorescein-labeled scFvs. The scFvs were incubated for 3 hours at room temperature before washing. Fluorescence was observed using a Typhoon phosphorimager with 488 nm excitation.

[7] = biological target: T1, Bovine submaxillary mucin; assay: SPR
[8] = biological target: T1, Bovine submaxillary mucin; assay: SPR on immobilised BSM

T2 sequence (P02769 25-607 limits assumed): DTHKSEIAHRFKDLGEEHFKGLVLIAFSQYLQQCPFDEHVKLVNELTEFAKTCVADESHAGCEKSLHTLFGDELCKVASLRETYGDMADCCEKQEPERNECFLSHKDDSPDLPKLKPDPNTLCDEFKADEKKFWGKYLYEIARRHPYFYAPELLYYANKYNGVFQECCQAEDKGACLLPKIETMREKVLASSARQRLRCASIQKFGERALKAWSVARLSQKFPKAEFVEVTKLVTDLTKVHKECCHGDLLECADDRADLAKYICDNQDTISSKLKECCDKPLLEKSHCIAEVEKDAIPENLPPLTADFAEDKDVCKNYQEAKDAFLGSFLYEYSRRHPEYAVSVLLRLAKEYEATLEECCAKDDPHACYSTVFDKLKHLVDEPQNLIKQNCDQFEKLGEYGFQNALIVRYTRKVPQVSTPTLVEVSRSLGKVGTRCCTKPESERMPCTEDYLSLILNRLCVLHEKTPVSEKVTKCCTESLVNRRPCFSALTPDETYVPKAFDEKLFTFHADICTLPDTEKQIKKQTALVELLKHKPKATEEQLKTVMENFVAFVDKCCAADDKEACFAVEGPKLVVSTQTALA

- Kd [1]: 4 nM
- binding result [2]: no binding (tested: 0.25 µM)
B1: 3E8 IgG (antibody, V domains shown)
VH: QVQLVQSGAEVKKPGASVKVSCKASGYTFTDHAIHWVRQAPGQRLEWMGYFSPGNDDFKYSQKFQGRVTITADKSASTAYMELSSLRSEDTAVYYCARSWIMQYWGQGTLVTVSS
VL: not shown
notes: Full-length humanized monoclonal IgG, gift from Enlyton, Ltd; Fluorescein-labelled at lysines in the dot blots; also called the bivalent IgG; full-length 3E8 IgG

- fold weaker binding than 3E8.IgG [3]: ~16 fold
- Kd [1]: 16 nM
- fold weaker binding than 3E8 IgG [1]: 4 fold
- Kd [4]: ~10.4 nM
- IC50 [5]: ~4000 nM
- binding result [6]: no binding
- Kd [7]: 16.4 nM
- Kd [8]: 12 nM
B2: 3E8.scFv (scFv)
scFv: GSSGDIVMTQSPDSLAVSLGERATINCKSSQSVLYSSNNKNYLAWYQQKPGQPPKLLIYWASTRESGVPDRFSGSGSGTDFTLTISSLQAEDVAVYYCQQYYSYPLTFGGGTKVEIKLSADDAKKDAAKKDDAKKDDAKKDLQVQLVQSGAEVKKPGASVKVSCKASGYTFTDHAIHWVRQAPGQRLEWMGYFSPGNDDFKYSQKFQGRVTITADKSASTAYMELSSLRSEDTAVYYCARSWIMQYWGQGTLVTVSS
notes: Labelled at lysines with fluorescein for the fluorescence dot blots and with biotin for the HRP dot blot and IHC; also called the scFv of 3E8; 3E8 scFv single chain
- fold tighter binding than CC49.scFv [1]: 2 fold
